We go through two molecules from paper PMC3469418 (2012).

Usually Kd stands for the constant that tells how readily two partners part at equilibrium. A higher Kd goes with lower affinity. By koff is commonly meant the rate constant with which the complex falls apart. Read a low koff as a long-lived complex.

Read-outs that look alike come from different tables or passages of the source.

Holding throughout (assay): SPR
The target of experiment [1] is T1, RPL12 unmodified peptide (D. melanogaster, UniProt Q9W1B9).
The target of experiment [2] is T2, RPL12 peptide trimethylated on lysine 3 (D. melanogaster, UniProt Q9W1B9, trimethyl-lysine at 3 (K3me3)).
The target in experiment [3] is RPL12 peptide dimethylated on lysine 3 (D. melanogaster, UniProt Q9W1B9, dimethyl-lysine at 3 (K3me2)).
Experiment [4] has as its target T1, RPL12 unmodified peptide. This is another data set of the same source.
Experiment [5] concerns the target T2, RPL12 peptide trimethylated on lysine 3. The source holds these as a separate data set.

B1: GST-HP1CD (HP1 chromodomain fused to GST) (domain or fragment)
chain: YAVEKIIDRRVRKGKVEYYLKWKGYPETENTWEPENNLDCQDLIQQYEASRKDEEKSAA
Take B1: the Kd with RPL12 unmodified peptide [1] was above 1000 µM; in experiment [2] it was 292 µM.

B2: GST-CortoCD (Corto chromodomain fused to GST) (domain or fragment)
chain: TASSNSNAAPAPSPQKDYSIPLHVDCSVEYELPNQPKPPAGQRVEPLLMIHPCYFRKMESQRRSPFVNNMHATARAV
As for B2, the Kd in experiment [3] came to 238 µM; in the experiment with RPL12 unmodified peptide [4], 624 µM. Besides, the koff in experiment [3] stood at 0.00099 s⁻¹; with RPL12 unmodified peptide [4], 0.00076 s⁻¹; in experiment [5], 0.00082 s⁻¹.
